Assay results reported in US11505583B2, “Proteins for the treatment of epithelial barrier function disorders” (Second Genome, Inc., priority 2018, dated 2022).
Residue numbers refer to the chain shown, from its start. Names and notes keep the numbering of the source.

B1: SG-11 (SEQ ID NO:7): Recombinant SG-11 with N-terminal methionine, 233 amino acids, no N-terminal tag (protein)
chain: MLEGEESVVYVGKKGVIASLDVETLDQSYYDETELKSYVDAEVEDYTAEHGKNAVKVESLKVEDGVAKLKMKYKTPEDYTAFNGIELYQGKVVASLAAGYVYDGEFARVEEGKVVGAATKQDIYSEDDLKVAIIRANTDVKVDGEICYVSCQNVKLTGKDSVSIRDGYYLETGSVTASVDVTGQESVGTEQLSGTEQMEMTGEPVNADDTEQTEAAAGDGSFETDVYTFIVYK
B2: SG-11V5: SG-11 variant SEQ ID NO:19 comprising N53S, N83S, C147V, C151S with respect to SEQ ID NO:7 (protein)
chain: B1 chain with N53S, N83S, C147V, C151S

Tested on: C57BL/6 mice given 2.5% DSS in drinking water
Assay: Therapeutic DSS model of inflammatory bowel disease, treatment after 7 days DSS (Example 5, Example 13B)
Type: in vivo, mouse
Conditions: Example 13B; for LBP in serum (ELISA): 50 nmole/kg i.p. b.i.d. for 4 days after 7 days DSS, FIG. 19B; for Colon length / Colon weight to length ratio: 50 nmole/kg, vs DSS+vehicle; for Colon length: FIG. 22B; for Colon weight to length ratio: p<0.01, FIG. 23B; for Body weight changes: 50 nmoles/kg, day 11, p<0.05, FIG. 20B
Method: In this example, experiments were performed to study the effects of SG-11 in the DSS mouse model when the SG-11 protein is administered to the mice after DSS treatment for 7 days. This differs from the treatment regimen of Example 4 above in which mice were administered SG-11 protein shortly before treatment with DSS.
Eight-week-old male C57BL/6 mice were housed 5 animals per cage and given food and water ad libitum for seven days. Following a 7-day acclimation period, the mice were provided with drinking water containing 2.5% DSS for 7 days. Fresh 2.5% DSS water was prepared every 2 days during the 7 day DSS administration. For this therapeutic DSS study, SG-11 used to treat the animals was fused at its N-terminus to a FLAG Tag (DYKDDDDK; SEQ ID NO:32).
On day 7 normal drinking water was restored and i.p. treatments of 50 nmole/kg of SG-11 (1.3 mg/kg) or Gly2-GLP2 (0.2 mg/kg) were initiated. Treatments were administered twice a day (b.i.d.), with a morning and evening dose (every 8 and 16 hours) for six days.
Body weight was measured daily during the morning treatment. The colon tissue was then harvested and length was measured in centimeters and the tissue was weighed. Fecal material was flushed from the colon and residual PBS removed by gently running the colon tissue through a pair of forceps. The colon tissue was then weighed and colon weight to length ratio in mg/mm was determined. Following weight measurements proximal and distal colon tissue was banked for RNA and protein analysis and the remaining tissues was fixed in 10% neutral buffered formalin for histopathology. Statistical analysis was performed by a one-way ANOVA compared to DSS+vehicle for serum 4KDa-FITC translocation, serum LBP concentrations, colon length, and colon weight to length ratio, while a two-way ANOVA was performed for analysis of body weight. In all analysis, a Fisher's LSD test for multiple comparisons was used. Graphs represent data pooled from two experiments, and are plotted as mean±SEM.
Histopathology analysis was performed on proximal and distal colon tissues from the therapeutic DSS model described above. Proximal (FIG. 13A) and distal (FIG. 13B) colon scores (range 0-4) are presented and as well as the total score for the colon which represents the sum of proximal and distal colon scores (Range 0-8) (FIG. 13C). LMA=Loss of mucosal architecture, Edema=Edema, INF=Inflammation, TMI=Transmural inflammation, MH=Mucosal hyperplasia, DYS=Dysplasia. Graphs represent data pooled from two independent experiments, and are plotted as mean±SEM. Statistical analysis was performed by a one-way ANOVA compared to DSS+vehicle followed by a Fisher's LSD test for multiple comparisons.
In the second experiment (Example 13B), mice were provided with drinking water containing 2.5% DSS for 7 days. On day 7 normal drinking water was restored and i.p. treatments of 50 nmole/kg of SG-11 (SEQ ID NO:7) (1.3 mg/kg), SG-11V5 (SEQ ID NO:19) (1.3 mg/kg), or Gly2-GLP2 (0.2 mg/kg) were initiated. Treatments were administered twice a day (b.i.d.), with a morning and evening dose (every 8 and 16 hours) for 4 days. For both the prophylactic and therapeutic models fresh 2.5% DSS water was prepared every 2 days during the DSS administration.
At the end of each DSS model study, mice were fasted for 4 hours and then orally gavaged with 600 mg/kg 4KDa dextran labeled with fluorescein isothiocyanate (FITC) [4KDa-FITC]. One hour after the 4KDa-FITC gavage mice were euthanized, blood was collected and FITC signal was measured in serum. […] Data in both graphs are plotted as mean±SEM and each figure represent data from an individual experiment (n=10 per group).
Upon completion of the DSS models above, LBP levels were measured as an inflammation centric readout of barrier function following the protocol detailed in Example 5. Upon completion of both DSS models (Examples 13A and 13B) blood was collected and serum was isolated. […]

Row | Molecule | LBP in serum (ELISA) | Colon length | Colon weight to length ratio | Body weight changes
1 | B1 | no reduction in LBP | significant increase in the colon length | significantly improved colon weight to length ratios | statistically improved body weight changes
2 | B2 | no reduction in LBP | significant increase in the colon length | significantly improved colon weight to length ratios | statistically improved body weight changes
